Three variants from FireProtDB (doi:10.1016/j.jmb.2004.09.082) can be followed below.

Sequences and labels used below:
B1: Co-chaperonin GroES, P0A6F9 (parent)
chain: MNIRPLHDRVIVKRKEVETKSAGGIVLTGSAAAKSTRGEVLAVGNGRILENGEVKPLDVKVGDIVIFNDGYGVKSEKIDNEEVLIMSESDILAIVEA

Variants of B1 are the subject of this series. The following applies: Escherichia coli (strain K12); pH 7.8; 25 °C; GdnHCl; Chromatography; Tris-HCl 5 mM; KCl 200 mM; reversible: yes; structure 1AON; whole UniProt chain shown.

As for V95C, the “ddG of mutation (higher = less stable)” value came out at 1.26 kJ/mol, the denaturant m value stood at 2.2 kcal/mol/M and the unfolding free energy amounted to 8.37 kJ/mol.
As to I3C, the “ddG of mutation (higher = less stable)” value came to 1.67 kJ/mol, the denaturant m value was 2.4 kcal/mol/M and the unfolding free energy was found to be 7.95 kJ/mol.
As for I3W, the “ddG of mutation (higher = less stable)” value came out at 1.67 kJ/mol, the denaturant m value stood at 2 kcal/mol/M and the unfolding free energy stood at 7.95 kJ/mol.
